Source: US20260152727A1
“And” between values parts separate entries of the source, which are not always exact repeats. Equal values may be shown once.

Molecular target: RSV fusion (F) protein (prefusion F, on recombinant RSV strain A2 virions) (respiratory syncytial virus (strain A2)) (UniProt P03420)
Test: cell-based or functional assay

Chain of UniProt P03420 (P03420 26-574): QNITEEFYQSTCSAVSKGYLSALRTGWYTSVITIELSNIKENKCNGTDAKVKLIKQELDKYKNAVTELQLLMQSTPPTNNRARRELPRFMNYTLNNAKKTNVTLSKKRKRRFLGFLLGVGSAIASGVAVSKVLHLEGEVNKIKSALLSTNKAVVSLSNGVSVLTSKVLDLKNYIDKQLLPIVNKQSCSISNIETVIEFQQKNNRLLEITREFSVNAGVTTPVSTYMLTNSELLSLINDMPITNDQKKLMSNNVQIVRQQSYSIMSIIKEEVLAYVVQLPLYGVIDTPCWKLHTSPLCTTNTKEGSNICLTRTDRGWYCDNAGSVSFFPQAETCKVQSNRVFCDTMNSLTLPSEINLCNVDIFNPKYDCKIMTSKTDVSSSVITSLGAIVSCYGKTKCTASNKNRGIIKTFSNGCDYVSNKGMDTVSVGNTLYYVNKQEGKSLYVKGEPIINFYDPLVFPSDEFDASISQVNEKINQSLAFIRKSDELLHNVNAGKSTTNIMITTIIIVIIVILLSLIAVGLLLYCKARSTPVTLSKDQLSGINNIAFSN

## anti-prefusion F antibody D25
  complete neutralization of 300 PFU of RSV-HRP (HRP signal OD490, HEp-2 cells): 370 ng/mL
  complete neutralization of 300 PFU of RSV-Lucia (secreted luciferase, luminometer) (antibody dilution (1:x, of 1 mg/ml)): 2700
  highest dilution at which the antibody negatively impacted RSV infectivity (RSV-Lucia): 5 ng/mL and 1.7 ng/mL
  highest dilution at which the antibody negatively impacted RSV-HRP infectivity: 5 ng/mL
